Test [1] concerns GST-14-3-3β / Rnd3 interaction. The test is described as follows: Peptide competition in GST-14-3-3β pull-down of FLAG-Rnd3 from COS7 lysates. Conditions: peptide 10 μg/ml preincubated 15 min at 4°C with GST-14-3-3β; immunoblot. It is filed as binding. As for the experimental part: Recombinant GST-14-3-3β was expressed and purified from E. coli (Extended Experimental Procedures). FLAG-Rnd3-transfected COS7 cells were lysed in LB buffer. After removal of insoluble material, precleared cell lysates were incubated at 4°C for 2 hr with the recombinant GST or GST-14-3-3β protein (5 μg) on glutathione beads (Amersham Biosciences). Beads were washed with LB buffer before eluting the proteins in LSB. The proteins were resolved by SDS-PAGE and analyzed by immunoblotting.
For peptide competition experiments (Table S3; Extended Experimental Procedures), peptides (10 μg/ml) were preincubated for 15 min at 4°C with the GST-14-3-3β prior to the addition of precleared cell lysates.
For orientation: Immunoblotting shows a protein as a band on a membrane.

Test [2] concerns the target T1, 14-3-3ζ (Homo sapiens, UniProt P63104).
T1 construct: hexa-His; made in house; host or cells: E. coli BL21(DE3) Star
T1 sequence (P63104 1-245): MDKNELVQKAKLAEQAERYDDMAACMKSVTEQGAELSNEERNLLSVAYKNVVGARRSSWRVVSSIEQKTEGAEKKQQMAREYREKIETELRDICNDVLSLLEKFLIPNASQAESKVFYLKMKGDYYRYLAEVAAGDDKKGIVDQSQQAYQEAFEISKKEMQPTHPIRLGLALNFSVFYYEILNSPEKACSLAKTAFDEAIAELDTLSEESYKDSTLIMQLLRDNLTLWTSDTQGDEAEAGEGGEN
The test is described as follows: Biolayer interferometry (Octet RED96), immobilised biotinylated peptides, 14-3-3ζ in solution. Conditions: determined by steady-state analysis, typical experiment (n ≥ 3). It is filed as binding. As to the method: Biolayer interferometry was carried out using an Octet RED96 instrument (ForteBio). Biotinylated peptides were immobilized on streptavadin-coated biosensors (ForteBio) at a concentration of 1 μg/ml in BI buffer (25 mM Tris, 150 mM NaCl, 0.1% Tween-20), for 300 s. The immobilization typically reached a response level of 2 nm. Association and dissociation curves were obtained through addition of a dilution series of 14-3-3ζ ([…]) for 300 s followed by dissociation in BI buffer for 300 s using the Octet acquisition software. The binding data were fitted using the Octet analysis software.

Test [3] has as its target T1, 14-3-3ζ. As to the kind of experiment: Isothermal titration calorimetry of Rnd3 C-terminal peptides with 14-3-3ζ. It is filed as binding. Conditions: ITC. As to the method: ITC measurements were carried out using a VP-ITC200 instrument (GE Healthcare). The 14-3-3ζ domain (see Extended Experimental Procedures) was used at 50–60 μM in ITC buffer (50 mM Tris [pH 7.5]), 100 mM NaCl, 1 mM TCEP). Rnd3 C-terminal peptides were solubilized in ITC buffer and used at 500–600 μM. Titrations were carried out at 25°C in triplicate. Each titration was fitted to a simple one-site binding model using the Origin software provided with the instrument. Titrations with nonbinding peptides were carried out at 15°C and 25°C.
GST-14-3-3β protein was expressed as previously reported ([Yaffe et al., 1997]). A hexa-His-tagged version of 14-3-3ζ was expressed and purified essentially as previously reported ([Kostelecky et al., 2009]). In brief, the E. coli strain BL21(DE3) Star (Invitrogen) was transformed with the expression plasmid that was maintained by 34 μg/ml chloramphenicol. E. coli cells were grown to OD600nm of 0.7-0.8 in TB medium at 37°C and protein expression induced by 1 mM IPTG for 5 hr at 30°C. Pelleted cells were suspended in buffer A (25 mM Tris [pH 7.5], 100 mM NaCl, 1 mM EDTA, and 1 mM DTT) and disrupted by sonication. Insoluble material was cleared by high-speed centrifugation and the cleared lysate applied to a 5 ml HisTrap column using an AKTA system (GE Healthcare). The 14-3-3ζ protein was eluted with a linear gradient (0–500 mM) of Imidazole in buffer A. Finally, the protein was subjected to size-exclusion chromatography using a High-Load S200 pg column. As previously described, 14-3-3ζ eluted as a dimer with a molecular weight of ∼60 kDa. The final yield of 14-3-3ζ was 30–40 mg per liter of TB medium.
(ITC needs no label: the signal is the heat of the interaction.)

A further test has as its system pS210-Rnd3. The test is described as follows: pS210-Rnd3 immunoblot in treated COS7 cells. It is filed as cell-based. The settings on record: 2 hr, PMA 100 nM, BIM1 1 μM. As for the experimental part:
(§1) COS7 cells grown in Dulbecco’s modified Eagle’s medium (DMEM) containing 10% bovine fetal calf serum and penicillin/streptomycin (Invitrogen) were electroporated with 5 μg DNA at 250 V and 960 μF using 0.4 cm Gene Pulser Cuvettes (Bio-Rad) in 250 μl of electroporation buffer (120 mM KCl, 10 mM K2PO4/KH2PO4 [pH 7.6], 25 mM HEPES [pH 7.6], 2 mM MgCl2, and 0.5% Ficoll). Cells were analyzed 24 hr after transfection. NIH 3T3 cells grown in DMEM containing 10% donor bovine serum and penicillin/streptomycin were transfected using FuGENE 6 (Roche) according to the manufacturer’s instructions. Where indicated, cells were treated for 20 min with 100 nM calyculin A (Alexis); for 2 hr with 100 nM staurosporine (Calbiochem), 20 μM H-1152 (Calbiochem), 1 μM bisindolylmaleimide I (BIM1, Calbiochem), or 100 nM phorbol-12-myristate-13-acetate (PMA, Cell Signaling Technology); and for 16 hr with 10 μM L-744,832 farnesyltransferase inhibitor (FTI, Calbiochem).
Rabbit polyclonal antisera were raised against phosphorylated Rnd3-S210 peptide (KNVKRNKpSQRA) by Eurogentec, Seraing, Belgium. Nonspecific antibodies were removed through a nonphosphopeptide (KNVKRNKSQRA) column followed by a specific phosphoenrichment of the antibodies by affinity purification using a phosphopeptide column. […]

The subject of the next test is Rnd3/14-3-3 interaction. As to the kind of experiment: Co-immunoprecipitation of Rnd3 with 14-3-3 proteins from treated COS7 cells. It is filed as cell-based. Conditions: staurosporine 100 nM 2 hr, calyculin A 100 nM 20 min, FTI (L-744,832) 10 μM 16 hr, immunoblot. As for the experimental part:
as §1
Transfected COS7 cells were lysed in lysis buffer LB (1% Triton X-100, 20 mM Tris–HCl [pH 8], 130 mM NaCl, 1 mM dithiothreitol [DTT], 10 mM sodium fluoride, complete EDTA-free protease inhibitor cocktail [Roche], phosphatase inhibitor cocktails [set II+IV, Calbiochem]). After centrifugation (13,000 g, 4°C, 10 min), soluble proteins were precleared then incubated with either mouse nonimmune IgG as a control, mouse anti-HA (HA-7) or mouse anti-FLAG (M2) antibody on agarose beads (Sigma-Aldrich) for 2 hr at 4°C. Beads were washed five times with lysis buffer (containing 260 mM NaCl), then bound proteins were eluted in Laemmli sample buffer (LSB), resolved by SDS–PAGE and analyzed by immunoblotting.

Another test has as its target hexa-His-tagged 14-3-3ζ (UniProt P63104). As to the kind of experiment: ITC; VP-ITC200; 14-3-3ζ at 50–60 μM, Rnd3 peptides at 500–600 μM; 50 mM Tris pH 7.5, 100 mM NaCl, 1 mM TCEP; 25°C, one-site model; non-binding peptides at 15°C and 25°C.
The target in test [4] is biotinylated Rnd3 C-terminal peptide, phosphorylated on S240 and isoprenylated (+P+Ipr) (human). As to the kind of experiment: BLI; Octet RED96; biotinylated peptides immobilised on streptavidin biosensors; dilution series of 14-3-3ζ; 25 mM Tris, 150 mM NaCl, 0.1% Tween-20; KD of +P-F by steady-state analysis. (In general: In BLI a coated tip is dipped into the sample, and binding shifts an interference pattern.)

Test [5] deals with biotinylated Rnd3 C-terminal peptide, phosphorylated on S240 (+P−F) (human). Described as above.
Test [6] concerns the target biotinylated Rnd3 C-terminal peptide, phosphorylated on S240 and geranylgeranylated (+P+GG) (human). Described as above.
Test [7] has as its target biotinylated Rnd3 C-terminal peptide, phosphorylated on S240 and farnesylated on C241 (+P+F) (human). Described as above.
Test [8] concerns the target biotinylated Rnd3 C-terminal peptide, phosphorylated on S240 and geranylated (+P+G) (human). The description is as above.

Square brackets hold non-standard residues; d marks the D form. Peptide text beside a SMILES is read from it. pS = N[C@@H](COP(=O)(O)O)C(=O)O

For orientation: Kd means the free concentration of one partner at which half of the binding sites on the other are occupied at equilibrium, for simple one-to-one binding. A higher Kd goes with lower affinity. The term stoichiometry N denotes the number of molecules, sites or subunits per partner or assembly. Broadly, the koff is the first-order rate constant of dissociation. A higher koff goes with a short-lived complex. The kon is the rate constant with which the complex forms. The low end stands for slow association, the high end for fast association.

Regarding `CC(C)C[C@H](NC(=O)[C@@H](N)CC(=O)O)C(=O)N[C@@H](CCCNC(=N)N)C(=O)N[C@@H](CCCCN)C(=O)N[C@@H](CC(=O)O)C(=O)N[C@@H](CCCCN)C(=O)N[C@@H](C)C(=O)N[C@@H](CCCCN)C(=O)N[C@@H](COP(=O)(O)O)C(=O)N[C@@H](CS)C(=O)O` [+P-F] (H-DLRKDKAK[pS]C-OH), the “inhibition of the interaction between GST-14-3-3β and Rnd3” value in test [1] was “only slightly inhibited”. For the same compound, on 14-3-3ζ [2], the affinity, expressed as Kd, was 1.3 µM. Further, the Kd on 14-3-3ζ [3] (25°C, 50 mM Tris pH 7.5, 100 mM NaCl, 1 mM TCEP, one-site model, mean ± SD, n = 3) turned out to be 1.06 ± 0.04 µM. At 14-3-3ζ [3] (25°C, 14-3-3ζ 50–60 μM, peptide 500–600 μM, 50 mM Tris pH 7.5, 100 mM NaCl, 1 mM TCEP, one-site model, mean ± SD, n = 3), the “Stoichiometry (N)” value was found to be 0.89 ± 0.017. At 14-3-3ζ [3] (25°C, mean ± SD, n = 3), this compound had a TΔS of 10.33 ± 0.967 kJ/mol, a ΔG of -34.11 ± 0.113 kJ/mol and a ΔH of -23.78 ± 0.854 kJ/mol. Also, the “N (printed in Figure 5C)” value on 14-3-3ζ [3] (fitted curve of Figure 5C) was determined as 0.89.

On to `CN(C)CCCn1cc(C2=C(c3c[nH]c4ccccc34)C(=O)NC2=O)c2ccccc21` [BIM1, bisindolylmaleimide I], for which the “effect on pS210-Rnd3” value in the test on pS210-Rnd3 is “reduced”.

Turning to `CC[C@H](C)[C@@H](CO[C@@H](Cc1ccccc1)C(=O)N[C@@H](CCS(C)(=O)=O)C(=O)OC(C)C)NC[C@@H](N)CS` [FTI, L-744,832], in the test with Rnd3/14-3-3 interaction, the “effect on Rnd3/14-3-3 interaction” value is “prevented”.

As to `CCCCCCCCCCCCCC(=O)O[C@@H]1[C@@H](C)[C@@]2(O)[C@@H](C=C(CO)C[C@]3(O)C(=O)C(C)=C[C@@H]23)[C@@H]2C(C)(C)[C@]12OC(C)=O` [PMA, phorbol-12-myristate-13-acetate], the “effect on pS210-Rnd3” value in the test with pS210-Rnd3 is reported as “increase”.

As for `COC[C@@H]([C@H](O)[C@H](O)C(=O)NCC[C@H](C)c1nc(/C=C/C[C@@H]2O[C@]3(C[C@@H](O)[C@@H]2C)O[C@H]([C@H](C[C@H](O)[C@H](C)[C@H](O)[C@H](C)/C=C(C)/C(C)=C/C=C/C(C)=C\C#N)OC)[C@H](OP(=O)(O)O)C3(C)C)co1)N(C)C` [calyculin A], in the test on Rnd3/14-3-3 interaction, the “effect on Rnd3/14-3-3 interaction” value is given as “increased”.

On to `CN[C@@H]1C[C@H]2O[C@@](C)([C@@H]1OC)n1c3ccccc3c3c4c(c5c6ccccc6n2c5c31)C(=O)NC4` [staurosporine], for which the “effect on Rnd3/14-3-3 interaction” value in the test with Rnd3/14-3-3 interaction is on record as “reduced”.

As for “N-CDRSKpSAPTS-C [PKC, reference compound]”, the “inhibition of the interaction between GST-14-3-3β and Rnd3” value in [1] is given as “inhibited”.

In the test with hexa-His-tagged 14-3-3ζ, “biotinylated Rnd3 C-terminal peptide, phosphorylated on S240 and farnesylated on C241 (+P+F)” came in with a dH of -12.4 kJ/mol and a stoichiometry N of 0.83.

In the case of “hexa-His-tagged 14-3-3ζ (from UniProt P63104 1-245) (natural protein)”, the dissociation constant (Kd) in [4] came to 0.556 µM; in [5], 1.3 µM; in test [6] it was 0.0232 µM; in test [7], 0.0324 µM; in [8], 0.0565 µM. Besides, the koff in test [4] was determined as 0.13 s⁻¹; in [6] it was 0.021 s⁻¹; in test [7], 0.028 s⁻¹; in test [8], 0.032 s⁻¹. Further, the kon is 240000 M⁻¹ s⁻¹ in test [4], 890000 M⁻¹ s⁻¹ in test [6], 860000 M⁻¹ s⁻¹ in test [7] and 570000 M⁻¹ s⁻¹ in [8].

For the origin of these results see paper PMC3690454, “14-3-3 Proteins Interact with a Hybrid Prenyl-Phosphorylation Motif to Inhibit G Proteins” (Cell, 2013).
